Measurements from article PMC3397886.

Experiments:
[1] = molecular target: A3B3D (A-His8/ΔCys, A-C255A/A-S232A/A-T235S, D/E48C) labelled with Cy3-maleimide on subunit D (Thermus thermophilus) (UniProt Q56403); assay: FRET or BRET
[2] = molecular target: V1 (A-His8/ΔCys, A-C255A/A-S232A/A-T235S/F-S54C) labelled with Cy3-maleimide on subunit F (Thermus thermophilus) (UniProt Q56403); assay: FRET or BRET

Kd [1]: 1.1 nM | Kd [2]: 0.26 nM
Substance: Vo (C-S105C/C-C268S/C-C323S) labelled with Cy5-maleimide on subunit C (from UniProt P74902 1-323; P74901 1-188) (complex)
